Assay results reported in US12018068B2, “Anti-O1 antibodies and uses thereof” (priority 2016, dated 2024).
Entries after “also recorded” stand apart in the source; their conditions may differ.

B1: 54H7: mouse hybridoma anti-O1 antigen antibody (Ms IgG3), VH SEQ ID NO:47, VL SEQ ID NO:48 (antibody, V domains shown)
VH: QVHLQQPGSELVRPGASVTLSCKASGYTFTNYWMQWVKQRPGQGLEWIGNIYPGSGNTNYDEKFRSKATLTVDTSSSTAYMHLTSLTSEDSAVYYCTRNWNFDYWGQGTTLTVSS
VL: DIQMTQSPSSLSASLGERVSLTCRASQDIGSSLNWLQQEPDGTIKRLIYATSSLDSGVPKRFSGSRSGSEYSLTISSLEAEDFVDYYCLQHTDSPYTFGGGTKLELK
modifications: 54H7 VH; 54H7 VL Amino Acid Sequence
B2: KPE33: human anti-K. pneumoniae O1 antigen antibody, VH SEQ ID NO:8, VL SEQ ID NO:9, isolated as IgG2 from donor #262 (antibody, V domains shown)
VH: EVQLVESGGALVQPGGSLRLSCAVSGFIFDDYAIHWVRRAPGKGLEWVSGIAWKSGATNYADSVKGRFAISRDNSKKSMYLQMNSLGTEDTALYYCTRRRASGDDTFYYFDYWGQGTLVTVSS
VL: EIVLTQSPATLSLSPGERATLSCRASQNVNTNLAWYQQRPGQSPRLLIYDASTRAAGLPARFSGSGSGTDFTLTISSLEPEDFAVYYCQQCTNWRYTFGQGTKLEIK
modifications: KPE33 VH Amino Acid Sequence; KPE33 VL Amino Acid Sequence

Key:
[1] = tested on: highly virulent strain Kp43816 (O1); assay: acute pneumonia model with Kp43816, prophylactic dosing, survival; assay type: in vivo, Klebsiella pneumoniae; details: 15 mpk, 24 hour prior to challenge
Procedure: In order to determine the efficacy of anti-O1 antigen antibodies in combination with antibiotics, 54H7 was tested in an acute pneumonia models. C57BL/6 mice were inoculated intranasally with 1e4 CFU of highly virulent strain Kp43816 (O1). Anti-K. pneumoniae monoclonal antibody 54H7 at 15 mg/kg and human IgG1 control antibody at 15 mg/kg were given 24 hour prior bacterial challenge (prophylatic dosing). Mouse survival was monitored daily until up to day 14.

purified O1 LPS = assay: Fortebio Octet competitive binding on O1 LPS; parameters: species or system Klebsiella pneumoniae; details: 10 μg/mL, probe pre-bound with KPE33
Procedure: Briefly, after initial binding with 10 μg/mL KPE33, the probe was incubated with antibody mixtures containing 10 μg/mL KPE33 with equal concentrations of 54H7, KPE33, or the control antibody R347.

[2] = tested on: K. pneumoniae carbapenem-resistant (CRE) strain Kp1131115 (O1); assay: acute lethal pneumonia model, survival; assay type: in vivo, Klebsiella pneumoniae; details: C57BL/6 mice, antibody one hour post bacterial challenge, vs human IgG1 control (R347)
Procedure: (§1) In an acute pneumonia model, C57BL/6 mice were inoculated intranasally with 1e4 to 1e8 CFU of the multi-drug resistant Klebsiella pneumoniae carbapenam resistant (CRE) clinical isolate strain KP1131115 (O1). Anti-K. pneumoniae monoclonal antibody KPE33 at 0.2, 1, and 5 mg/kg and human IgG1 control antibody at 5 mg/kg were given one hour post bacterial challenge (therapeutic dosing). Mouse survival was monitored daily until up to day 8.
as §1, with “Additionally, in an” for “In an”, “monoclonal antibodies […] and […]” for “monoclonal antibody KPE33”, “at 0.2” for “at 0.2, 1,”, “and 1” for “and 5”
KPE33 or KPE33-V-2016 were administered at a dose of 6 mg/kg 1 hour post bacterial infection with a Klebsiella pneumoniae carbapenam resistant strain.

O1 LPS = assay: Octet binding affinity to O1 LPS; parameters: species or system Klebsiella pneumoniae; details: average, from on-rate and off-rate, read-out: affinity constant (KD) to O1 LPS
Text: In order to reduce potential sequence liabilities for antibody development including potential immunogenicity due to anti-drug antibodies, an unpaired Cysteine in the light chain CDR3 of KPE33 was exchanged with Threonine (T), and somatic mutations in the frameworks 1, 2, and 4 of KPE33 were replaced with germ line residues (as summarized in FIG. 5). CDRs were maintained as wildtype, except for the C107T substitution described above. The optimized KPE33 was named KPE33v2016. […] This platform provides a powerful tool to measure the rate of biomolecular complex formation and complex stability in a more biologically meaningful setting. Briefly, Protein A coated sensors were coated with 2 μg/mL O1 LPS for 10 minutes before being dipped into solution containing 0.2 μg/mL anti-O1 LPS mAbs in Kinetics buffer (ForteBio, dilute 10× to 1× with PBS). Changes in the number of molecules bound to the biosensor caused a shift in the interference pattern that was recorded in real time. […] The affinity constant (KD) of KPE33 and KPE33v2016 to O1 LPS was calculated based on the on-rate and off-rate from Octet sensorgram.
KPE33v2016 was further optimized, thereby creating two new variants—KPE33 H32+L2016(1EQ) and KPE33 H33+L2016(1EQ). Both of these variants contain a Methionine to Isoleucine mutation adjacent to CDRH1, a Tryptophan to Tyrosine mutation in CDRH2, an Aspartate to Glutamate mutation adjacent to CDRH2, Asparagine to Glutamine and Methionine to Leucine mutations in FRH3 and an Aspartate to Asparagine mutation in CDRH3. In addition, KPE33 H32+L2016(1EQ) had four FRH3 residues changed to the germ-line residues, whereas KPE33 H33+L2016(1EQ) only has three of the same FRH3 residues changed to the germ-line. Both of these variants contain the same light chain as KPE33v2016, but with a single Glutamate to Glutamine mutation in residue 1.

Kp8561 Klebsiella = assay: bacteremia model, KPE33 synergy with meropenem; assay type: in vivo, Klebsiella pneumoniae; details: antibody 2.5 mpk, meropenem 5 mpk, post challenge
Procedure: (§2) The synergy of anti-O1 antigen antibodies and antibiotic was also assessed in the pneumonia and bacteremia mouse models.
(§3) In the pneumonia experiments, C57BL/6 mice were inoculated intranasally with 1e4 to 1e8 CFU of the Kp8045 Klebsiella. (See FIG. 4A.) In the bacteremia experiments, mice were inoculated with Kp8561 Klebsiella. (See FIG. 4B.) Both sub-therapeutic dosage of antibodies (1 mpk for Kp8045 and 2.5 mpk for Kp8561) and meropenem antibiotic (2.5 mpk for Kp8045 and 5 mpk for Kp8561) were administered post bacterial challenge. Mouse survival was monitored daily until up to day 8.

Kp8045 Klebsiella = assay: pneumonia model, KPE33 synergy with meropenem; assay type: in vivo, Klebsiella pneumoniae; details: antibody 1 mpk, meropenem 2.5 mpk, post challenge
Procedure: as §2, §3

ESBL strain Kp8561 (O1) = assay: lethal bacteremia model, survival; assay type: in vivo, Klebsiella pneumoniae; details: C57BL/6 mice, 1.5, 5, 15 mg/kg one hour post challenge
Procedure: In a bacteremia model, C57BL/6 mice were inoculated intraperitoneally with 1e8 CFU extended spectrum beta lactamase (ESBL) clinical isolate strain Kp8561 (O1). Anti-K. pneumoniae monoclonal antibody KPE33 at 1.5, 5, and 15 mg/kg and human IgG1 control antibody at 45 mg/kg were given one hour post bacterial challenge (therapeutic dosing). Mouse survival was monitored daily until up to day 8.

[3] = tested on: K. pneumoniae and S. aureus SF8300 (USA300); assay: K. pneumoniae and S. aureus co-infection pneumonia model; assay type: in vivo, Klebsiella pneumoniae and Staphylococcus aureus; details: C57BL/6 mice, 0.5 mL ip, 24 hours prior to co-infection
Procedure: In order to evaluate the efficacy of anti-O1 antigen antibodies in co-infection, female 7-8 week old C57BL/6 mice were briefly anesthetized in 3% Isoflurane and 50 μl of bacterial suspension was placed on the nares. Animals were inoculated with 5e7 CFU S. aureus SF8300 (USA300) alone or in combination with 1.5e2 CFU of K. pneumoniae and monitored up to 7 days for survival studies. For organ burden studies, lungs and spleens were harvested at 24 or 48 hours post challenge as described in Example 5 above. For protection studies, mice were passively immunized (0.5 mL, ip) with KPE33 or control mAb before lethal bacterial challenge. All data were plotted in Prism.

Molecule	survival, Kp43816 pneumonia, monotherapy [1]	additional binding after initial binding of KPE33 (purified O1 LPS)	survival, lethal pneumonia Kp1131115 [2]	Kd (O1 LPS) [nM]	survival, combination with meropenem, bacteremia Kp8561 (Kp8561 Klebsiella)	survival, combination with meropenem, pneumonia Kp8045 (Kp8045 Klebsiella)	survival, lethal bacteremia Kp8561 (ESBL strain Kp8561 (O1))	survival in lethal co-infection [3]
B1	significant protection	able to show additional binding	–	–	–	–	–	–
B2	–	–	protect mice from lethal bacterial challenge; also recorded: dose dependently enhanced survival	5.83	significant synergy and better protection than monotherapy	significant synergy and better protection than monotherapy	protect mice from extended spectrum beta-lactamase (ESBL) strain Kp8561	rescued the mice
